Measurements taken from patent publication US20250340623A1 (AC IMMUNE, published 2025).
Residue numbers refer to the chain shown, from its start.

B1: ACI-7079-3106F2-Ab1 (antibody, V domains shown)
VH: EVQLQQSGAELVRPGASVKLSCTASGFNVKDDYMHWVKQRPEQGLEWIGWIDPENGDTEYASKFQGKATLTADTSSNTAYLQLSGLTSVDTAVYYCTTAGTSPYYFDYWGQGTTLTVSS
VL: DIVMTQSQKFMSTSVGDRVSVTCKASQNVGTNVAWYQQKVGQSPKALIYSASYRYSGVPDRFTGSGSGTDFTLTISNVQSEDLADYFCQQYNSYPLTFGSGTKLEIK
notes: mouse hybridoma mAb; VH/VL only; also called 3106F2C8
B2: ACI-7079-3112H1-Ab1 (antibody, V domains shown)
VH: EVQLQQSGPELVKPGASVKISCKASGYTFSDYFMNWVKQSHGKSLEWIGDINPNNGGSSYIQKFKGKATLTVDKSSTTAYMELRSLTSEDSAVYYCARGSNYAMDSWGQGTSVTVSS
VL: DIVMSQSPSSLAVSAGEKVTMSCKSSQSLLNSRTRKNYLAWYQQKPGQSPKLLIYWASTRESGVPDRFTGSGSGTDFTLTISSVQAEDLAVYYCKQSYDLWTFGGGTKLEIK
notes: mouse hybridoma mAb; VH/VL only; also called 3112H1F3
B3: ACI-8030-6106F5-Ab1 (antibody, V domains shown)
VH: QVQLQQSGPELVKPGASVKISCKASGYSFTTYYIHWMKQRPGQGPEWIGWIYPGRGYTKYNEKFKDKAAQTADTSSNTAYMQLSSLRSEDSAVYYCARDWETGFPYWGQGTLVTVSA
VL: DIVLTQSPASLAVSLGQRATISCKASQSVDYGGDSWLNWYQQKPGQPPKLLIYAASNLDSGIPARFGGSGSGTDFTLNIHPVEEEDAATYYCQQSGEDPFTFGGGTNLEIK
notes: mouse hybridoma mAb; VH/VL only; also called 6106F5B10
B4: ACI-8031-6207G10-Ab1 (antibody, V domains shown)
VH: QVQLQQSGAELVKPGASVKISCKASGYAFSSYWMNWVKQRPGKGLEWIGQIYPGDGDTNYNGKFKGKATLTADRSSSTAYMQLSSLTSEDSAVYFCAITHYDYWGQGTTLTVSS
VL: DILLTQSPAILSVSPGDRVSFSCRASQSIGTRIHWYQQRTNGSPRLLIKYASESISGTPSRFSGSGSGTDFTLSINSVESEDIADYYCQQSNSWPLTFGAGTKLELK
notes: mouse hybridoma mAb; VH/VL only; also called 6207G10E6
B5: ACI-8032-6304F3-Ab1 (antibody, V domains shown)
VH: QVQLQQSGAELARPGASVKLSCKASGYTFTSYGVSWVKQRTGQGLEWIGEIYPRSGNTYYNEKFKGKATLTADKSSSTAYMELRSLTSEDSAVYFCASESYYGDYDWYFDVWGTGTTVTVSS
VL: DVLMTQIPLSLPVSPGDQVSISCRSSQSIVHSNGNTYLEWYLQKPGQSPKPLIYKVSNRFSGVPDRFSGSGSGTDFTLKISRVEAEDLGVYYCFQGSHVPPTFGGGTKLEIK
notes: mouse hybridoma mAb; VH/VL only; also called 6304F3D12
B6: ACI-8032-6301A10-Ab2 (antibody, V domains shown)
VH: B5 VH with V34I
VL: B5 VL with I7T, P15L, V19A, Q27H, V30E, Y41C, S48P, P51F, K79R
notes: mouse hybridoma mAb; VH/VL only; also called 6301A10E12
B7: ACI-8032-6301C8-Ab2 (antibody, V domains shown)
VH: B5 VH with A16T, S31T, V34I, S75P, D106A
VL: B5 VL with P15L, V19A, Y41H, P51L, K55E, K79N
notes: mouse hybridoma mAb; VH/VL only; also called 6301C8G12
B8: ACI-8032-6307F1-Ab2 (antibody, V domains shown)
VH: B5 VH with V34M, A72S, A79S, D106A
VL: B5 VL with I7T, P15L, V19A, I29V, N35I, P51L, D75Y
notes: mouse hybridoma mAb; VH/VL only; also called 6307F1H10
B9: ACI-8032-6314A3-Ab3 (antibody, V domains shown)
VH: B5 VH
VL: B5 VL with S20F
notes: mouse hybridoma mAb; VH/VL only; also called 6314A3E4
B10: ACI-8032-6301G2-Ab2 (antibody, V domains shown)
VH: EVQLQQSGPELVKPGASVKISCKASGYTFTDYFMNWVKQSHGKSLEWIGDINPNIGVTNYNPKFKDRATLTVDKSSSSAYMELRSLTSEDSTVYYCARGGGSNPLYYAMDYWGQGTSVTVSS
VL: B2 VL with Y93F
notes: mouse hybridoma mAb; VH/VL only; also called 6301G2D11
B11: ACI-8033-6402E2-Ab2 (antibody, V domains shown)
VH: EVQLQHSGPDLVKPGASVKISCKASGYTFTDYYMNWVKQSHGKSLEWIGDINPNNGDTTYNQKFKGRATLTVDKSSSTAYMELRSLTSEDSAVYYCARSGSNYYAMDSWGQGTSVTVSS
VL: B2 VL with K18R, L30F, T78S, T80N
notes: mouse hybridoma mAb; VH/VL only; also called 6402E2E4
B12: ACI-8033-6403A4-Ab1 (antibody, V domains shown)
VH: EVQLVESGGGLVQPKGSLKLSCAASGFSFNTYAMNWVRQAPGKGLEWVARIRSKSNNYTTYYADSVKDRFTISRDDSESMLYLQMNNLKTEDTAMYYCVRTMDYWGQGTSVTVSS
VL: QIVLTQSPAIMSASLGEEITLTCSASSSISYMHWYQQKSGTSPKLLIHSTFNLASGVPSRFSGSGSGTFYSLTISSVEAEDAADYYCHQWSSYYTFGGGTKLEIK
notes: mouse hybridoma mAb; VH/VL only; also called 6403A4A3
B13: ACI-3108C10_3112H1 (bispecific antibody, V domains shown)
VH 1: ELQLVESGGGLVRPGGSLKLSCATSGFTFRNYAMSWVRQTPAKRLEWVATISDGGTYTFYSDNVKGRFTISRDNVKNTLYLQMSHLKSEDTAMYYCSRAGSGHWGQGTTLTVSS
VL 1: not shown
VH 2: B2 VH
VL 2: B2 VL
notes: biparatopic; Arm A ACI-7079-3108C10-Ab2, Arm B ACI-7079-3112H1-Ab1; engineered constant domains not specified
B14: ACI-3112H1_3108C10 (bispecific antibody, V domains shown)
VH 1: B2 VH
VL 1: B2 VL
VH 2: B13 VH 1
VL 2: not shown
notes: biparatopic; Arm A ACI-7079-3112H1-Ab1, Arm B ACI-7079-3108C10-Ab2; engineered constant domains not specified
B15: ACI-4301H3_3108C10 (bispecific antibody, V domains shown)
VH 1: B2 VH with S30A, S58T, S59T, I61N, T77N, S100R, S106Y
VL 1: B2 VL with W56S, S73F
VH 2: B13 VH 1
VL 2: not shown
notes: biparatopic; Arm A ACI-7088-4301H3-Ab2, Arm B ACI-7079-3108C10-Ab2; engineered constant domains not specified

Tests used:
alpha-synuclein fibrils [1] = target: T1, alpha-synuclein fibrils (UniProt P37840 1-140); experiment: SPR, captured mAb
Protocol: (§1) Non-covalent immobilization of alpha-synuclein antibodies was performed using a target immobilization method of 2000 response units (RU). Antibodies were diluted in 10 mM sodium acetate pH 5.5 (GE Healthcare, BR-1003-52) to a final concentration of 5 μg/mL.
(§2) Binding affinity of alpha-synuclein antibodies to monomeric or fibrillar alpha-synuclein species was performed using a single-cycle kinetics method. The instrument was primed with 1×HBS-P+ buffer (10× stock from GE Healthcare, BR-1003-52 diluted in Milli-Q water). Injections of monomeric alpha-synuclein (aSyn) (Boston Biochem, SP-485), increasing in concentration from 0.62-50 nM prepared from serial 2-fold dilutions, were performed with contact times of 300 sec/injection at a flow rate of 30 μL/min. A dissociation phase of 900 sec followed the final 50 nM injection. Regeneration of the sensor to the goat anti-mouse antibody layer was achieved using 3 regenerations of 10 mM Glycine pH 1.7. […] Regeneration of the sensor to the goat anti-mouse antibody layer was achieved using 3 regenerations of 10 mM Glycine pH 1.7. Results obtained from single-cycle kinetics were evaluated by Biacore T200 evaluation software with 1:1 binding homogenous Langmuir model (with a global Rmax) with Cycle 5 as a blank subtraction. The following kinetic parameters were obtained: on-rate (ka), off-rate (kd), affinity constant (KD, ratio of kd by ka), maximum response (Rmax), and goodness of fit (Chi2).
(§3) Non-covalent capture of the alpha-synuclein antibodies was performed in three separate runs.

[2] = target: T2, monomeric alpha-synuclein (UniProt P37840 1-140); experiment: SPR, captured mAb
Protocol: as §1, §2, §3

alpha-synuclein fibrils [3] = target: T1, alpha-synuclein fibrils; experiment: SPR, captured bAb
Protocol: (§4) Any non-covalently bound antibodies were removed by three successive regenerations of 10 mM Glycine pH 1.7 (GE Healthcare, 28-9950-84). Immobilization levels were evaluated following ethanolamine capping (Bound) and finally following regeneration (Final). Non-covalent immobilization of alpha-synuclein biparatopic antibodies on flow cell 2 of channels 1-8 was performed at a final concentration of 5 μg/mL, diluted in 10 mM sodium acetate pH 5.5 (GE Healthcare, BR-1003-52). Non-covalent immobilization of an isotype control antibody on flow cell 1 of channels 1-8 was performed at a final concentration of 5 μg/mL, diluted in 10 mM sodium acetate pH 5.5 (GE Healthcare, BR-1003-52).
(§5) Binding affinity of alpha-synuclein biparatopic antibodies to monomeric or fibrillar alpha-synuclein species was performed using a single-cycle kinetics method. The instrument was primed with 1×HBS-P+ buffer (10× stock from GE Healthcare, BR-1003-52 diluted in Milli-Q water). Injections of monomeric alpha-synuclein (Boston Biochem, SP-485), increasing in concentration from 0.62-50 nM prepared from serial 2-fold dilutions, were performed with contact times of 300 sec/injection at a flow rate of 30 μL/min. A dissociation phase of 900 sec followed the final 50 nM injection. Regeneration of the sensor to the goat anti-human antibody layer was achieved using 3 regenerations of 10 mM Glycine pH 1.7. […] Regeneration of the sensor to the goat anti-mouse antibody layer was achieved using 3 regenerations of 10 mM Glycine pH 1.7. Results obtained from single-cycle kinetics were evaluated by Biacore 8K evaluation software with 1:1 binding homogenous Langmuir model with a preceeding buffer injection as a blank subtraction. The following kinetic parameters were obtained: on-rate (ka), off-rate (kd), affinity constant (KD, ratio of kd by ka), maximum response (Rmax), and goodness of fit (Chi2).
(§6) Kinetic constants were determined from 1:1 homogenous binding models for all cases.

[4] = target: T2, monomeric alpha-synuclein; experiment: SPR, captured bAb
Protocol: as §4, §5, §6

alpha-synuclein fibrils [5] = target: T1, alpha-synuclein fibrils; experiment: SPR, captured bAb; head says nM, kd/ka gives M
Protocol: as §4, §5, §6

[6] = target: T2, monomeric alpha-synuclein; experiment: SPR, captured bAb; head says nM, kd/ka gives M
Protocol: as §4, §5, §6

Row | Binder | Kd (alpha-synuclein fibrils [1]) [nM] | koff (alpha-synuclein fibrils [1]) [s⁻¹] | kon (alpha-synuclein fibrils [1]) [M⁻¹ s⁻¹] | Kd [2] [nM] | koff [2] [s⁻¹] | kon [2] [M⁻¹ s⁻¹] | koff (alpha-synuclein fibrils [3]) [s⁻¹] | kon (alpha-synuclein fibrils [3]) [M⁻¹ s⁻¹] | koff [4] [s⁻¹] | kon [4] [M⁻¹ s⁻¹] | Kd (alpha-synuclein fibrils [5]) [nM] | Kd [6] [nM]
1 | B1 | 31.5 | 0.000367 | 11700 | 392 | 0.135 | 344000 | – | – | – | – | – | –
2 | B2 | 19.3 | 0.000216 | 11200 | 10.5 | 0.00225 | 214000 | – | – | – | – | – | –
3 | B3 | 16.7 | 0.000232 | 13900 | 1.95 | 0.00023 | 118000 | – | – | – | – | – | –
4 | B4 | 13.3 | 0.00015 | 11300 | 3.67 | 0.000314 | 85300 | – | – | – | – | – | –
5 | B5 | 40.6 | 0.000527 | 13000 | 4.75 | 0.016 | 3.37e+06 | – | – | – | – | – | –
6 | B6 | 2.69 | 0.000193 | 71800 | 11.5 | 0.00517 | 450000 | – | – | – | – | – | –
7 | B7 | 42.8 | 0.00355 | 83000 | 8.76 | 0.00329 | 376000 | – | – | – | – | – | –
8 | B8 | 26 | 0.000691 | 26500 | 19 | 0.0248 | 1.3e+06 | – | – | – | – | – | –
9 | B9 | 41.5 | 0.000325 | 7830 | 16.7 | 0.0382 | 2.28e+06 | – | – | – | – | – | –
10 | B10 | 3350 | 0.000353 | – | 606 | 0.000237 | 390 | – | – | – | – | – | –
11 | B11 | 134 | 0.000987 | 7350 | 3.26 | 0.000651 | 200000 | – | – | – | – | – | –
12 | B12 | 37.9 | 0.000599 | 15800 | 96.4 | 0.044 | 457000 | – | – | – | – | – | –
13 | B13 | – | – | – | – | – | – | 0.000315 | 13500 | 0.023 | 2280 | 23.4 | 10100
14 | B14 | – | – | – | – | – | – | 0.000472 | 7650 | 0.0162 | 5540 | 61.7 | 2920
15 | B15 | – | – | – | – | – | – | 0.000418 | 8220 | 0.0361 | 1.04e+06 | 50.8 | 34.8
